First the molecules themselves.
B1: PTH(15-34)NH2 (peptide)
peptide: LNSMERVEWLRKKLQDVHNF-NH2
notes: also called C-terminally amidated 15-34 fragment of PTH
B2: PTH(15-34)NH2 [V31′I] (peptide)
peptide: LNSMERVEWLRKKLQDIHNF-NH2
notes: Hybrid PTH/PTHrP peptide in the PTH(15-34)NH2 scaffold
B3: PTH(15-34)NH2 [L28′I] (peptide)
peptide: LNSMERVEWLRKKIQDVHNF-NH2
notes: as for B2
B4: PTH(15-34)NH2 [W23′F/K27′L] (peptide)
peptide: LNSMERVEFLRKLLQDVHNF-NH2
notes: as for B2
B5: PTH(15-34)NH2 [W23′F/K27′L/L28′I/V31′I] (peptide)
peptide: LNSMERVEFLRKLIQDIHNF-NH2
notes: Quadruple swap peptide in the PTH(15-34)NH2 scaffold; also called W23′F/K27′L/L28′I/V31′I peptide
B6: PTH(15-34)NH2 [W23′F] (peptide)
peptide: LNSMERVEFLRKKLQDVHNF-NH2
notes: as for B2
B7: PTH(15-34)NH2 [K27′L] (peptide)
peptide: LNSMERVEWLRKLLQDVHNF-NH2
notes: as for B2
B8: PTH(15-34)NH2 [K27′L/L28′I] (peptide)
peptide: LNSMERVEWLRKLIQDVHNF-NH2
notes: as for B2
B9: PTH(15-34)NH2 [K27′L/V31′I] (peptide)
peptide: LNSMERVEWLRKLLQDIHNF-NH2
notes: as for B2
B10: PTHrP(12-34)NH2 [F23′W/L27′K/I28′L/I31′V] (peptide)
peptide: GKSIQDLRRRFWLHHKLAEVHTA-NH2
notes: Quadruple swap peptide in the PTHrP(12-34)NH2 scaffold; also called quadruply mutant PTHrP peptide
B11: PTHrP(12-34)NH2 [F23′W/L27′K] (peptide)
peptide: GKSIQDLRRRFWLHHKIAEIHTA-NH2
notes: Hybrid PTH/PTHrP peptide in the PTHrP(12-34)NH2 scaffold

Where no end group is shown, it is not given here.

In one assay the target is T1, PTH1R in cell membranes, G protein-coupled conformation (RG) (UniProt Q03431 27-593).
T1 construct: whole, on cells; Cell membranes, not intact cells; RG state studied by co-expressing the receptor with dominant negative Gαs; also called G protein-coupled receptor
T1 sequence (Q03431 27-593): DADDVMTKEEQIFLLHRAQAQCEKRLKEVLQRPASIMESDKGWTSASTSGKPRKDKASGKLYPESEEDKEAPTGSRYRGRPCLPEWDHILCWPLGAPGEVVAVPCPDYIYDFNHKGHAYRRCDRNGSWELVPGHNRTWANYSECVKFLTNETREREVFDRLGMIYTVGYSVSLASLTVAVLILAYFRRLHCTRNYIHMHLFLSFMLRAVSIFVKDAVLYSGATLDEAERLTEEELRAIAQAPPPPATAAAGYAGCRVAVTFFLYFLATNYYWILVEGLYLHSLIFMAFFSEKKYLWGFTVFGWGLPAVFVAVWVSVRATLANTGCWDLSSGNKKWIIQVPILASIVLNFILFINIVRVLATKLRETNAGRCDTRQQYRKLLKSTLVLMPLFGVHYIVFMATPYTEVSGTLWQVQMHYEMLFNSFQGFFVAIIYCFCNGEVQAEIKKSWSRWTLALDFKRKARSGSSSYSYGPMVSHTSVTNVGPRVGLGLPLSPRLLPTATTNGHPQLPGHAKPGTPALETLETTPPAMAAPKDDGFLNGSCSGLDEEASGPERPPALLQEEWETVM
Put plainly: competition binding, PTH1R in cell membranes, RG state (dominant negative Gαs), n = 3.
The IC50 is the concentration at which inhibition is half-maximal. Lower therefore signals inhibition by little substance. Take SVSEIQLMHNLGKHLNSMERVEWLRKLIQDVHNF-NH2 [PTH(1-34)NH2 [K27L/L28I]]: the IC50 worked out at 0.38 nM and the “IC50 Log M” value was -9.5 Log M.

For another assay, the target named is T2, MBP-PTH1R ECD-(His)6 fusion protein (UniProt Q03431 29-187).
T2 construct: range 29-187; Expressed in E. coli, disulfide shuffled in vitro; also called MBP-PTH1R ECD-H6; MBP-PTH1R ECD fusion protein
T2 sequence: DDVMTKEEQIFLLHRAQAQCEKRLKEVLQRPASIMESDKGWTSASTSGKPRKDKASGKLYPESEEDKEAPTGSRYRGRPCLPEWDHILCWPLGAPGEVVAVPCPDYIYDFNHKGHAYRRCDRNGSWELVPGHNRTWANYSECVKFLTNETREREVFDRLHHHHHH
Put plainly: AlphaScreen single point competition; peptide 20 µM against biotin-PTH(7-34)NH2 (23 nM) on MBP-PTH1R-ECD (23 nM) [panel H]. On the procedure:
(§1) ECD-peptide binding assays. The binding of peptides to the MBP-PTH1R ECD-H6 fusion protein was assessed using an AlphaScreen assay (Perkin-Elmer). […] The pre-coupling reactions were mixed, un-labeled competitor peptides were added as indicated, and the reactions were incubated 4 to 5 hrs to reach equilibrium. Photon counts were recorded in 384-well optiplates using an Envision 2104 plate reader (Perkin-Elmer). Prism 5.0 software (GraphPad Software, San Diego) was used to fit the data to a fixed-slope dose-response inhibition equation for determination of IC50 values. Real-time analysis of the binding of peptides to the isolated PTH1R ECD using the Octet Red system (ForteBio) was performed as described in below.
Background: In Alpha technology, singlet oxygen from a donor bead excites a nearby acceptor bead.
B1: the binding result is “binds”.

As for LNSMERVEALRKKLQDVHNF-NH2 (also called PTH(15-34)NH2 [W23A]) [W23A], the binding result is reported as “no binding (tested: 20 µM)”.

On to LNSMERVEWLRKKLQDVANF-NH2 (also called PTH(15-34)NH2 [H32A]), for which the binding result is “binds”.

As to LNSMERVEWLRKALQDVHNF-NH2 (also called PTH(15-34)NH2 [K27A]) [K27A], the binding result is “binds”.

With LNSMARVEWLRKKLQDVHNF-NH2 (also called PTH(15-34)NH2 [E19A]) [E19A], the binding result was “binds”.

LNSMEAVEWLRKKLQDVHNF-NH2 (also called PTH(15-34)NH2 [R20A]): the binding result is reported as “binds”.

For the molecule LNSMERAEWLRKKLQDVHNF-NH2 (also called PTH(15-34)NH2 [V21A]) [V21A], the binding result is recorded as “binds”.

For LNSMERVEWLRKKLADVHNF-NH2 (also called PTH(15-34)NH2 [Q29A]) [Q29A], the binding result was “binds”.

For the molecule LNSMERVEWARKKLQDVHNF-NH2 (also called PTH(15-34)NH2 [L24A]), the binding result is “no binding (tested: 20 µM)”.

Turning to LNSMERVEWLRKKLQDAHNF-NH2 (also called PTH(15-34)NH2 [V31A]) [V31A], the binding result is recorded as “binds”.

On to LNSMERVEWLRKKLQDVHNA-NH2 (also called PTH(15-34)NH2 [F34A]) [F34A], for which the binding result is reported as “binds”.

Consider LNSMERVEWLRAKLQDVHNF-NH2 (also called PTH(15-34)NH2 [K26A]) [K26A], for which the binding result is listed as “binds”.

For LNSMERVEWLRKKAQDVHNF-NH2 (also called PTH(15-34)NH2 [L28A]) [L28A], the binding result is “no binding (tested: 20 µM)”.

Another assay deals with T2, MBP-PTH1R ECD-(His)6 fusion protein. Put plainly: AlphaScreen single point competition; peptide 20 µM against biotin-PTH(7-34)NH2 (23 nM) on MBP-PTH1R-ECD (23 nM) [panel I]. On the procedure:
as §1
As for GKSIQDLRRRFALHHLIAEIHTA-NH2 (also called PTHrP(12-34)NH2 [F23A]) [F23A], the binding result is “binds”.

For the molecule GKSIQDLRRRFFLHHAIAEIHTA-NH2 (also called PTHrP(12-34)NH2 [L27A]) [L27A], the binding result is “binds”.

In the case of GKSIQDLRRRFFLHHLAAEIHTA-NH2 (also called PTHrP(12-34)NH2 [I28A]) [I28A], the binding result was “binds”.

For GKSIQDLRARFFLHHLIAEIHTA-NH2 (also called PTHrP(12-34)NH2 [R20A]), the binding result is recorded as “no binding (tested: 20 µM)”.

In the case of GKSIQDLRRRFFAHHLIAEIHTA-NH2 (also called PTHrP(12-34)NH2 [L24A]), the binding result is “binds”.

As for GKSIQDLRRRFFLHHLIAEIATA-NH2 (also called PTHrP(12-34)NH2 [H32A]), the binding result is given as “binds”.

On to GKSIQDLARRFFLHHLIAEIHTA-NH2 (also called PTHrP(12-34)NH2 [R19A]) [R19A], for which the binding result was “binds”.

In the case of GKSIQDLRRAFFLHHLIAEIHTA-NH2 (also called PTHrP(12-34)NH2 [R21A]) [R21A], the binding result was “binds”.

GKSIQDLRRRFFLHHLIAEAHTA-NH2 (also called PTHrP(12-34)NH2 [I31A]) [I31A]: the binding result is reported as “binds”.

As for GKSIQDLRRRFFLHHLIAEIHAA-NH2 (also called PTHrP(12-34)NH2 [T33A]) [T33A], the binding result is “binds”.

GKSIADLRRRFFLHHLIAEIHTA-NH2 (also called PTHrP(12-34)NH2 [Q16A]) [Q16A]: the binding result was “binds”.

Another assay shares this target. Put plainly: AlphaScreen single point competition; peptide 20 µM against biotin-PTH(7-34)NH2 (23 nM) on MBP-PTH1R-ECD (23 nM) [panel A]. The method, then:
as §1
For B2, the binding result is given as “binds”.

For the molecule B3, the binding result is “binds”.

As for LNSMERVEWLRKKIQDIHNF-NH2 (also called PTH(15-34)NH2 [L28I/V31I]) [L28I/V31I], the binding result is listed as “binds”.

Turning to B4, the binding result is listed as “binds”.

In the case of B5, the binding result is on record as “binds”.

On to B6, for which the binding result is “binds”.

Turning to B7, the binding result is recorded as “binds”.

Turning to B8, the binding result was “binds”.

With LNSMERVEFLRKKLQDIHNF-NH2 (also called PTH(15-34)NH2 [W23F/V31I]) [W23F/V31I], the binding result is recorded as “binds”.

For LNSMERVEFLRKKIQDVHNF-NH2 (also called PTH(15-34)NH2 [W23F/L28I]) [W23F/L28I], the binding result is “binds”.

For B9, the binding result is “binds”.

The next assay shares this target. The experiment in a line: AlphaScreen single point competition; peptide 20 µM against biotin-PTH(7-34)NH2 (23 nM) on MBP-PTH1R-ECD (23 nM) [panel B]. On the procedure:
as §1
Consider GKSIQDLRRRFWLHHLLAEIHTA-NH2 (also called PTHrP(12-34)NH2 [F23W/I28L]) [F23W/I28L], for which the binding result is listed as “binds”.

For the molecule GKSIQDLRRRFWLHHLIAEVHTA-NH2 (also called PTHrP(12-34)NH2 [F23W/I31V]) [F23W/I31V], the binding result is listed as “binds”.

Regarding B10, the binding result is “binds”.

Turning to GKSIQDLRRRFFLHHLLAEVHTA-NH2 (also called PTHrP(12-34)NH2 [I28L/I31V]) [I28L/I31V], the binding result was “binds”.

B11: the binding result was “binds”.

For the origin of these results see patent publication US8563513 (VAN ANDEL RESEARCH INSTITUTE, dated 2013).
